B1: DNA polymerase alpha catalytic subunit (Mus musculus), P33609 (parent)
chain: MAPMHEEDCKLEASAVSDSGSFAASRARREKKSKKGRQEALERLKKAKAGEKYKYEVEDLTSVYEEVDEEQYSKLVQARQDDDWIVDDDGIGYVEDGREIFDDDLEDDALDTCGKGSDGKAHRKDRKDVKKPSVTKPNNIKAMFIASAGKKTTDKAVDLSKDDLLGDILQDLNTETAQITPPPVLIPKKKRSTGALLNPFSVHTPKAIPSGKPASPVLRNEPLLTPIPLKRAELAGELAQPECPEDEQELGVMEFEDGDFDESMDTEKVDEKPVTAKTWDQETEPVERVEHEADPERGTTSYLENFLPDVSCWDIDQDDESIPQEVQVDSSNLPLVKGADDEQVFQFYWLDAYEDPYNQPGVVFLFGKVWIESVKTHVSCCVMVKNIERTLYFLPREMKFDLNTGKETAIPVTMKDVYEEFDSKISAKYKIMKFKSKIVEKNYAFEIPDVPEKSEYLEVRYSAEVPQLPQNLKGETFSHVFGTNTSSLELFLMNRKIKGPCWLEVKNPQLLNQPISWCKFEVMALKPDLVNVIKDVSPPPLVVMSFSMKTMQNVQNHQHEIIAMAALVHHSFALDKAPPEPPFQTHFCVVSKPKDCIFPCDFKEVISKKNMKVEIAATERTLIGFFLAKVHKIDPDILVGHNICSFELEVLLQRINECKVPYWSKIGRLRRSNMPKLGSRSGFGERNATCGRMICDVEISAKELIHCKSYHLSELVQQILKTERIVIPTENIRNMYSESSYLLYLLEHIWKDARFILQIMCELNVLPLALQITNIAGNIMSRTLMGGRSERNEFLLLHAFYENNYIVPDKQIFRKPQQKLGDEDEEIDGDTNKYKKGRKKATYAGGLVLDPKVGFYDKFILLLDFNSLYPSIIQEFNICFTTVQRVTSEVQKATEDEEQEQIPELPDPNLEMGILPREIRKLVERRKQVKQLMKQQDLNPDLVLQYDIRQKALKLTANSMYGCLGFSYSRFYAKPLAALVTYKGREILMHTKDMVQKMNLEVIYGDTDSIMINTNSTNLEEVFKLGNKVKSEVNKLYKLLEIDIDAVFKSLLLLKKKKYAALVVEPTSDGNYITKQELKGLDIVRRDWCDLAKDTGNFVIGQILSDQSRDTIVENIQKRLIEIGENVLNGSVPVSQFEINKALTKDPQDYPDRKSLPHVHVALWINSQGGRKVKAGDTVSYVICQDGSNLTATQRAYAPEQLQKLDNLAIDTQYYLAQQIHPVVARICEPIDGIDAVLIALWLGLDSTQFRVHQYHKDEENDALLGGPAQLTDEEKYKDCEKFKCLCPSCGTENIYDNVFEGSGLDMEPSLYRCSNVDCKVSPLTFMVQLSNKLIMDIRRCIKKYYDGWLICEEPTCCSRLRRLPLHFSRNGPLCPVCMKAVLRPEYSDKSLYTQLCFYRYIFDADCALEKLTEHEKDKLKKQFFPLRVLQDYRKVKNIAEQFLSWSGYSEVNLSKLFANYAGKS
partner: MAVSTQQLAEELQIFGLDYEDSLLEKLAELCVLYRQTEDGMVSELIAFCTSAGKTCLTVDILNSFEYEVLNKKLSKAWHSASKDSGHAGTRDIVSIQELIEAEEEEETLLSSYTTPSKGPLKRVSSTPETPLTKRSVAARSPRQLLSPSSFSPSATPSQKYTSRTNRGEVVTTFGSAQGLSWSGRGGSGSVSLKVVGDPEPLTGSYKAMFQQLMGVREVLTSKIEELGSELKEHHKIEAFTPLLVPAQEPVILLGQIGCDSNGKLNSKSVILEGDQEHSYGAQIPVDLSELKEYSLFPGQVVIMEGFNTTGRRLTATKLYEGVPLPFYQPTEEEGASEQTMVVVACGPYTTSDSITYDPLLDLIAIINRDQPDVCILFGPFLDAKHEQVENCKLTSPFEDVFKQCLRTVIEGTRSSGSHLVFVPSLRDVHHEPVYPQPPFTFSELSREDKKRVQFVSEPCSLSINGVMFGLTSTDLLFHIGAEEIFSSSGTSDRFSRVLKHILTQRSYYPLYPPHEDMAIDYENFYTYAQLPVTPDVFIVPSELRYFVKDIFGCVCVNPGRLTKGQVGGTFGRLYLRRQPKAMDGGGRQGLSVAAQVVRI

Variants of: B1
Conditions: with dpoa2_mouse Pola2, P33611

effect of a mutation on the interaction	Variant
decreasing interaction	C1287A;C1290A
decreasing interaction	C1375A;C1378A

— IntAct's records for PubMed 10523676
